Measurements published in article PMC2628294.

Tests used:
[1] = target: GlcNAc-containing IgG1-Fc (2) (human); experiment: SEC
[2] = target: soluble human FcγIIIa receptor (human) (UniProt P08637); experiment: SPR
[3] = target: PNGase F deglycosylated IgG1-Fc (human); experiment: SDS-PAGE under non-reducing conditions
[4] = target: yeast-expressed recombinant human IgG1-Fc (1) (human); experiment: SDS-PAGE under non-reducing conditions
[5] = target: yeast-expressed recombinant human IgG1-Fc (1) (human); experiment: SEC

UniProt P08637, sequence (P08637 17-208): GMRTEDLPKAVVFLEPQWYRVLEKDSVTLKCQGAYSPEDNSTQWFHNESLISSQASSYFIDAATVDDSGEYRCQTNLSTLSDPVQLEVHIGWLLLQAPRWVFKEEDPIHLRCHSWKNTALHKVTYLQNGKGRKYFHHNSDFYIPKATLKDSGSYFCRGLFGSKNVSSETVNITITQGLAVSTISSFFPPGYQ

GlcNAc-containing IgG1-Fc (2) (domain or fragment)
stoichiometry N [1]: 2
fold less active in binding than the Fc glycoform (4) [2]: > 17 fold

IgG1-Fc glycoform (4), Man3GlcNAc2-IgG1-Fc (domain or fragment)
fold more active in binding than the CHO-expressed IgG1-Fc [2]: 2 fold

IgG1-Fc glycoform (6), Gal2Man3GlcNAc2-IgG1-Fc (domain or fragment)
fold more active in binding than the CHO-expressed IgG1-Fc [2]: 1.4 fold

PNGase F deglycosylated IgG1-Fc (domain or fragment)
stoichiometry N [3]: 2

yeast-expressed recombinant human IgG1-Fc (1) (domain or fragment)
stoichiometry N [4]: 2
stoichiometry N [5]: 2
